Where no end group is shown, it is not given here. [ ]: non-standard residue; d: D form. Aib = CC(C)(N)C(=O)O
B1: [Aib8,Glu23,Val25,Lys30,Glu34,Lys35,Aib36,Lys37]-GLP-1-(7-37)-peptidyl-Glu-Phe-Leu amide (peptide)
peptide: H[Aib]EGTFTSDVSSYLEGEAVKEFIKWLVEK[Aib]KEFL-NH2
modifications: N-terminus assumed
SMILES: CC[C@H](C)[C@H](NC(=O)[C@H](Cc1ccccc1)NC(=O)[C@H](CCC(=O)O)NC(=O)[C@H](CCCCN)NC(=O)[C@@H](NC(=O)[C@H](C)NC(=O)[C@H](CCC(=O)O)NC(=O)CNC(=O)[C@H](CCC(=O)O)NC(=O)[C@H](CC(C)C)NC(=O)[C@H](Cc1ccc(O)cc1)NC(=O)[C@H](CO)NC(=O)[C@H](CO)NC(=O)[C@@H](NC(=O)[C@H](CC(=O)O)NC(=O)[C@H](CO)NC(=O)[C@@H](NC(=O)[C@H](Cc1ccccc1)NC(=O)[C@@H](NC(=O)CNC(=O)[C@H](CCC(=O)O)NC(=O)C(C)(C)NC(=O)[C@@H](N)Cc1c[nH]cn1)[C@@H](C)O)[C@@H](C)O)C(C)C)C(C)C)C(=O)N[C@@H](CCCCN)C(=O)N[C@@H](Cc1c[nH]c2ccccc12)C(=O)N[C@@H](CC(C)C)C(=O)N[C@H](C(=O)N[C@@H](CCC(=O)O)C(=O)N[C@@H](CCCCN)C(=O)NC(C)(C)C(=O)N[C@@H](CCCCN)C(=O)N[C@@H](CCC(=O)O)C(=O)N[C@@H](Cc1ccccc1)C(=O)N[C@@H](CC(C)C)C(N)=O)C(C)C
B2: [Aib8,Glu23,Val25,Arg26,Glu34,Lys35,Aib36,Lys37]-GLP-1-(7-37)-peptidyl-Glu-Phe-Leu amide (peptide)
peptide: H[Aib]EGTFTSDVSSYLEGEAVREFIAWLVEK[Aib]KEFL-NH2
modifications: N-terminus assumed
SMILES: CC[C@H](C)[C@H](NC(=O)[C@H](Cc1ccccc1)NC(=O)[C@H](CCC(=O)O)NC(=O)[C@H](CCCNC(=N)N)NC(=O)[C@@H](NC(=O)[C@H](C)NC(=O)[C@H](CCC(=O)O)NC(=O)CNC(=O)[C@H](CCC(=O)O)NC(=O)[C@H](CC(C)C)NC(=O)[C@H](Cc1ccc(O)cc1)NC(=O)[C@H](CO)NC(=O)[C@H](CO)NC(=O)[C@@H](NC(=O)[C@H](CC(=O)O)NC(=O)[C@H](CO)NC(=O)[C@@H](NC(=O)[C@H](Cc1ccccc1)NC(=O)[C@@H](NC(=O)CNC(=O)[C@H](CCC(=O)O)NC(=O)C(C)(C)NC(=O)[C@@H](N)Cc1c[nH]cn1)[C@@H](C)O)[C@@H](C)O)C(C)C)C(C)C)C(=O)N[C@@H](C)C(=O)N[C@@H](Cc1c[nH]c2ccccc12)C(=O)N[C@@H](CC(C)C)C(=O)N[C@H](C(=O)N[C@@H](CCC(=O)O)C(=O)N[C@@H](CCCCN)C(=O)NC(C)(C)C(=O)N[C@@H](CCCCN)C(=O)N[C@@H](CCC(=O)O)C(=O)N[C@@H](Cc1ccccc1)C(=O)N[C@@H](CC(C)C)C(N)=O)C(C)C
B3: [Aib8,Glu23,Val25,Glu34,Lys35,Val36,Lys37]-GLP-1-(7-37)-peptidyl-Glu-Phe-Leu amide (peptide)
peptide: H[Aib]EGTFTSDVSSYLEGEAVKEFIAWLVEKVKEFL-NH2
modifications: N-terminus assumed
SMILES: CC[C@H](C)[C@H](NC(=O)[C@H](Cc1ccccc1)NC(=O)[C@H](CCC(=O)O)NC(=O)[C@H](CCCCN)NC(=O)[C@@H](NC(=O)[C@H](C)NC(=O)[C@H](CCC(=O)O)NC(=O)CNC(=O)[C@H](CCC(=O)O)NC(=O)[C@H](CC(C)C)NC(=O)[C@H](Cc1ccc(O)cc1)NC(=O)[C@H](CO)NC(=O)[C@H](CO)NC(=O)[C@@H](NC(=O)[C@H](CC(=O)O)NC(=O)[C@H](CO)NC(=O)[C@@H](NC(=O)[C@H](Cc1ccccc1)NC(=O)[C@@H](NC(=O)CNC(=O)[C@H](CCC(=O)O)NC(=O)C(C)(C)NC(=O)[C@@H](N)Cc1c[nH]cn1)[C@@H](C)O)[C@@H](C)O)C(C)C)C(C)C)C(=O)N[C@@H](C)C(=O)N[C@@H](Cc1c[nH]c2ccccc12)C(=O)N[C@@H](CC(C)C)C(=O)N[C@H](C(=O)N[C@@H](CCC(=O)O)C(=O)N[C@@H](CCCCN)C(=O)N[C@H](C(=O)N[C@@H](CCCCN)C(=O)N[C@@H](CCC(=O)O)C(=O)N[C@@H](Cc1ccccc1)C(=O)N[C@@H](CC(C)C)C(N)=O)C(C)C)C(C)C
B4: [Aib8,Glu23,Val25,Gln30,Glu34,Lys35,Aib36,Lys37]-GLP-1-(7-37)-peptidyl-Glu-Phe-Leu amide (peptide)
peptide: H[Aib]EGTFTSDVSSYLEGEAVKEFIQWLVEK[Aib]KEFL-NH2
modifications: N-terminus assumed
SMILES: CC[C@H](C)[C@H](NC(=O)[C@H](Cc1ccccc1)NC(=O)[C@H](CCC(=O)O)NC(=O)[C@H](CCCCN)NC(=O)[C@@H](NC(=O)[C@H](C)NC(=O)[C@H](CCC(=O)O)NC(=O)CNC(=O)[C@H](CCC(=O)O)NC(=O)[C@H](CC(C)C)NC(=O)[C@H](Cc1ccc(O)cc1)NC(=O)[C@H](CO)NC(=O)[C@H](CO)NC(=O)[C@@H](NC(=O)[C@H](CC(=O)O)NC(=O)[C@H](CO)NC(=O)[C@@H](NC(=O)[C@H](Cc1ccccc1)NC(=O)[C@@H](NC(=O)CNC(=O)[C@H](CCC(=O)O)NC(=O)C(C)(C)NC(=O)[C@@H](N)Cc1c[nH]cn1)[C@@H](C)O)[C@@H](C)O)C(C)C)C(C)C)C(=O)N[C@@H](CCC(N)=O)C(=O)N[C@@H](Cc1c[nH]c2ccccc12)C(=O)N[C@@H](CC(C)C)C(=O)N[C@H](C(=O)N[C@@H](CCC(=O)O)C(=O)N[C@@H](CCCCN)C(=O)NC(C)(C)C(=O)N[C@@H](CCCCN)C(=O)N[C@@H](CCC(=O)O)C(=O)N[C@@H](Cc1ccccc1)C(=O)N[C@@H](CC(C)C)C(N)=O)C(C)C
B5: [Aib8,Glu23,Val25,Lys30,Glu34,Lys35,Leu36,Lys37]-GLP-1-(7-37)-peptidyl-Glu-Phe-Leu amide (peptide)
peptide: H[Aib]EGTFTSDVSSYLEGEAVKEFIKWLVEKLKEFL-NH2
modifications: N-terminus assumed
SMILES: CC[C@H](C)[C@H](NC(=O)[C@H](Cc1ccccc1)NC(=O)[C@H](CCC(=O)O)NC(=O)[C@H](CCCCN)NC(=O)[C@@H](NC(=O)[C@H](C)NC(=O)[C@H](CCC(=O)O)NC(=O)CNC(=O)[C@H](CCC(=O)O)NC(=O)[C@H](CC(C)C)NC(=O)[C@H](Cc1ccc(O)cc1)NC(=O)[C@H](CO)NC(=O)[C@H](CO)NC(=O)[C@@H](NC(=O)[C@H](CC(=O)O)NC(=O)[C@H](CO)NC(=O)[C@@H](NC(=O)[C@H](Cc1ccccc1)NC(=O)[C@@H](NC(=O)CNC(=O)[C@H](CCC(=O)O)NC(=O)C(C)(C)NC(=O)[C@@H](N)Cc1c[nH]cn1)[C@@H](C)O)[C@@H](C)O)C(C)C)C(C)C)C(=O)N[C@@H](CCCCN)C(=O)N[C@@H](Cc1c[nH]c2ccccc12)C(=O)N[C@@H](CC(C)C)C(=O)N[C@H](C(=O)N[C@@H](CCC(=O)O)C(=O)N[C@@H](CCCCN)C(=O)N[C@@H](CC(C)C)C(=O)N[C@@H](CCCCN)C(=O)N[C@@H](CCC(=O)O)C(=O)N[C@@H](Cc1ccccc1)C(=O)N[C@@H](CC(C)C)C(N)=O)C(C)C
B6: [Aib8,Glu23,Val25,Val29,Glu34,Lys35,Aib36,Lys37]-GLP-1-(7-37)-peptidyl-Glu-Phe-Leu amide (peptide)
peptide: H[Aib]EGTFTSDVSSYLEGEAVKEFVAWLVEK[Aib]KEFL-NH2
modifications: N-terminus assumed
SMILES: CC(C)C[C@H](NC(=O)[C@H](Cc1ccccc1)NC(=O)[C@H](CCC(=O)O)NC(=O)[C@H](CCCCN)NC(=O)C(C)(C)NC(=O)[C@H](CCCCN)NC(=O)[C@H](CCC(=O)O)NC(=O)[C@@H](NC(=O)[C@H](CC(C)C)NC(=O)[C@H](Cc1c[nH]c2ccccc12)NC(=O)[C@H](C)NC(=O)[C@@H](NC(=O)[C@H](Cc1ccccc1)NC(=O)[C@H](CCC(=O)O)NC(=O)[C@H](CCCCN)NC(=O)[C@@H](NC(=O)[C@H](C)NC(=O)[C@H](CCC(=O)O)NC(=O)CNC(=O)[C@H](CCC(=O)O)NC(=O)[C@H](CC(C)C)NC(=O)[C@H](Cc1ccc(O)cc1)NC(=O)[C@H](CO)NC(=O)[C@H](CO)NC(=O)[C@@H](NC(=O)[C@H](CC(=O)O)NC(=O)[C@H](CO)NC(=O)[C@@H](NC(=O)[C@H](Cc1ccccc1)NC(=O)[C@@H](NC(=O)CNC(=O)[C@H](CCC(=O)O)NC(=O)C(C)(C)NC(=O)[C@@H](N)Cc1c[nH]cn1)[C@@H](C)O)[C@@H](C)O)C(C)C)C(C)C)C(C)C)C(C)C)C(N)=O
B7: [Aib8,Glu23,Val25,Leu33,Glu34,Lys35,Aib36,Lys37]-GLP-1-(7-37)-peptidyl-Glu-Phe-Leu amide (peptide)
peptide: H[Aib]EGTFTSDVSSYLEGEAVKEFIAWLLEK[Aib]KEFL-NH2
modifications: N-terminus assumed
SMILES: CC[C@H](C)[C@H](NC(=O)[C@H](Cc1ccccc1)NC(=O)[C@H](CCC(=O)O)NC(=O)[C@H](CCCCN)NC(=O)[C@@H](NC(=O)[C@H](C)NC(=O)[C@H](CCC(=O)O)NC(=O)CNC(=O)[C@H](CCC(=O)O)NC(=O)[C@H](CC(C)C)NC(=O)[C@H](Cc1ccc(O)cc1)NC(=O)[C@H](CO)NC(=O)[C@H](CO)NC(=O)[C@@H](NC(=O)[C@H](CC(=O)O)NC(=O)[C@H](CO)NC(=O)[C@@H](NC(=O)[C@H](Cc1ccccc1)NC(=O)[C@@H](NC(=O)CNC(=O)[C@H](CCC(=O)O)NC(=O)C(C)(C)NC(=O)[C@@H](N)Cc1c[nH]cn1)[C@@H](C)O)[C@@H](C)O)C(C)C)C(C)C)C(=O)N[C@@H](C)C(=O)N[C@@H](Cc1c[nH]c2ccccc12)C(=O)N[C@@H](CC(C)C)C(=O)N[C@@H](CC(C)C)C(=O)N[C@@H](CCC(=O)O)C(=O)N[C@@H](CCCCN)C(=O)NC(C)(C)C(=O)N[C@@H](CCCCN)C(=O)N[C@@H](CCC(=O)O)C(=O)N[C@@H](Cc1ccccc1)C(=O)N[C@@H](CC(C)C)C(N)=O
B8: [Aib8,Glu23,Val25,Arg26,Val29,Gln30,Leu33,Glu34,Lys35,Aib36,Lys37]-GLP-1-(7-37)-peptidyl-Glu-Phe-Leu amide (peptide)
peptide: H[Aib]EGTFTSDVSSYLEGEAVREFVQWLLEK[Aib]KEFL-NH2
modifications: N-terminus assumed
SMILES: CC(C)C[C@H](NC(=O)[C@H](Cc1ccccc1)NC(=O)[C@H](CCC(=O)O)NC(=O)[C@H](CCCCN)NC(=O)C(C)(C)NC(=O)[C@H](CCCCN)NC(=O)[C@H](CCC(=O)O)NC(=O)[C@H](CC(C)C)NC(=O)[C@H](CC(C)C)NC(=O)[C@H](Cc1c[nH]c2ccccc12)NC(=O)[C@H](CCC(N)=O)NC(=O)[C@@H](NC(=O)[C@H](Cc1ccccc1)NC(=O)[C@H](CCC(=O)O)NC(=O)[C@H](CCCNC(=N)N)NC(=O)[C@@H](NC(=O)[C@H](C)NC(=O)[C@H](CCC(=O)O)NC(=O)CNC(=O)[C@H](CCC(=O)O)NC(=O)[C@H](CC(C)C)NC(=O)[C@H](Cc1ccc(O)cc1)NC(=O)[C@H](CO)NC(=O)[C@H](CO)NC(=O)[C@@H](NC(=O)[C@H](CC(=O)O)NC(=O)[C@H](CO)NC(=O)[C@@H](NC(=O)[C@H](Cc1ccccc1)NC(=O)[C@@H](NC(=O)CNC(=O)[C@H](CCC(=O)O)NC(=O)C(C)(C)NC(=O)[C@@H](N)Cc1c[nH]cn1)[C@@H](C)O)[C@@H](C)O)C(C)C)C(C)C)C(C)C)C(N)=O

Molecular target: human GLP-1 receptor (human, UniProt P43220)
Test: cell-based or functional assay

| Binder | CRE luciferase EC50, 0% HSA [pM] | CRE luciferase EC50, 1% HSA [pM] |
| --- | --- | --- |
| B1 | 103 | 43 |
| B2 | 76 | 28 |
| B3 | 474 | 381 |
| B4 | 83 | 42 |
| B5 | 465 | 275 |
| B6 | 111 | 36 |
| B7 | 203 | 76 |
| B8 | 94 | 29 |
